In this test the target is TLND2AXH, ataxin-1 residues 410-561, recombinant protein for size exclusion chromatography. Nature of the test: SEC; analytical, Superdex-75 10/300 GL, 20 mM Tris-HCl pH 7, 150 mM NaCl, 1 mM TCEP; 200 ul of 150 uM protein incubated 24 h at 37 °C, each injected separately; 0.8 ml/min; dimer to monomers.

The term stoichiometry N denotes the number of molecules, sites or subunits per partner or assembly. “TLND2AXH, ataxin-1 residues 410-561, recombinant protein for size exclusion chromatography (domain or fragment)”: the stoichiometry N was 2.
